pKd: −log10 of the molar value.
Key:
[1] = target: yeast Hsp90, intact (full-length) dimer (yeast) (UniProt P02829); test: ITC; 600 μM Tah1 injected into 40 μM yeast Hsp90; 10 mM Tris pH 7.5, 5 mM NaCl; 10°C or 30°C (not told which)
[2] = target: mouse Pih1 PIH domain 1-200 (His-mPih1 1-200) (mouse) (UniProt Q9CQJ2); test: ITC; peptides at 350 μM injected into 30 μM Pih1 (mPIH domain) at 30°C; 20 mM Tris pH 7.5, 5 mM NaCl
[3] = target: pre-assembled full-length yeast Tah1-Pih1 complex (yeast) (UniProt P25638); test: ITC; 301 μM yeast Hsp90 injected into 25 μM yeast Tah1-Pih1 complex; 10 mM Tris pH 7.5, 5 mM NaCl; 10°C or 30°C (not told which)
[4] = target: human Spagh/RPAP3 120-395 (tandem TPR region) (human) (UniProt Q9H6T3); test: ITC; 500 μM yeast Hsp90 injected into 20 μM Spagh/RPAP3 120-395; 10 mM Tris pH 7.5, 5 mM NaCl; 10°C or 30°C (not told which)
Sequence of human Spagh/RPAP3 120-395 (tandem TPR region) (human) (Q9H6T3 120-395): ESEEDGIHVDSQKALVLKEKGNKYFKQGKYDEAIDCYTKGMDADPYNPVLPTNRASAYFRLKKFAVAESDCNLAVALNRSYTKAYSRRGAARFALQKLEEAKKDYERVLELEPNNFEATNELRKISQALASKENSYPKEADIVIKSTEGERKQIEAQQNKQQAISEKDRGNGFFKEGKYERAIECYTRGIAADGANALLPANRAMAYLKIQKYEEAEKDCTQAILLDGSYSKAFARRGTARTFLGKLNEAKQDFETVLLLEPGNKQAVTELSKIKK

Sequence of mouse Pih1 PIH domain 1-200 (His-mPih1 1-200) (mouse) (Q9CQJ2 1-200): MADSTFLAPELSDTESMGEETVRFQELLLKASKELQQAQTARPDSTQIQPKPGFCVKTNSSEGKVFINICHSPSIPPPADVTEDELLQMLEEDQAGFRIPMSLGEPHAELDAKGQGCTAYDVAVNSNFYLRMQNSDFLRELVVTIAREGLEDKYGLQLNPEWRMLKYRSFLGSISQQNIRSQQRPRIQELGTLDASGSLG

Row | Substance | pKd [2] | other results
1 | Tah1 (yeast, full-length) (from UniProt P25638 1-111) (natural protein) | – | pKd [1]: 5.23; stoichiometry N (Tah1 per Hsp90 chain) [1]: 1
2 | mouse Tel2 484-496 peptide, bis-phosphorylated pSer 486 and pSer 488 | 4.42 | –
3 | mouse Tel2 484-496 peptide, bis-phosphorylated pSer 488 and pSer 492 (QGSDpSELDpSDDEF) | 6.77 | –
4 | mouse Tel2 484-496 peptide, pSer 486 | < 4.00 | –
5 | mouse Tel2 484-496 peptide, pSer 488 | 4.82 | –
6 | mouse Tel2 484-496 peptide, pSer 492 | 6.41 | –
7 | yeast Hsp90, intact (full-length) dimer (from UniProt P02829 1-709) (natural protein) | – | pKd [3]: 5.40; pKd [4]: 5.17; stoichiometry N ([4]; scale: Hsp90 chains per Spagh/RPAP3): 2

Source: paper PMC4058522, “Structural Basis for Phosphorylation-Dependent Recruitment of Tel2 to Hsp90 by Pih1” (Structure(London, England:1993), 2014)
